Data: the RNAGym collection of RNA variant scans (doi:10.1073/pnas.2313332121)
Variants at the floor of the assay were thinned out.

B1: TPR 5TU (parent)
chain: GGAUCUUCUCGAUCUAACAAAAAAGACAAAUCUGCCACAAAGCUUGAGAGCAUCUUCGGAUGCAGAGGCGGCAGCCUUCGGUGGCGCGAUAGCGCCAACGUUCUCAACUAUGACACGCAAAACGCGUGCUCCGUUGAAUGGAGUUUAUCAUG

Variants of: B1
Test: polymerase ribozyme fitness, log enrichment relative to wild type (log ratio); higher = more active; in vitro selection for triplet polymerase activity
In short: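 In triplicate, a single round of in vitro selection was run on each mutant library, PCR-built and transcribed, covering one subunit of a heterodimeric triplet polymerase ribozyme. Frozen incubation at −7 °C followed annealing with a biotinylated primer, partner subunit and triplets, and extended constructs were then gel-excised, streptavidin-captured and taken through RT-PCR. Fitness is the logarithm of genotype enrichment over wild-type enrichment, from inverse-variance-weighted replicate averages of Illumina-sequenced inputs and outputs. […] only genotypes with ≥10 input reads and ≥1 read per output were kept.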

Variant | polymerase ribozyme fitness (log ratio)
G59C U111G | ≤ -4.2
U31A G100U | ≤ -4.2
C18U C32U G83U | -3.14
A49C A106U | -3.68
U56A G68A | -4.01
C108U G141U | -3.1
C93U G140A | -3.82
A28G U33A A40U C87U G92A U127A G152U | -3.85
A12U C36U U61G G67A U82G A106G A138U | -4.08
U6G A98U | -0.985
G48U G80U C96G | ≤ -4.2
C85U A115C | -0.617
C85U G124A G141C | -0.515
C14U U78C | -2.43
C99A A150G | -3.11
C14G A52C C69U U77G G92A | ≤ -4.2
C5G U77C C87G U134G | ≤ -4.2
C96G G152C | -3.62
U13C C18G C35G A40G C63A A91U C118U C132U A150U | ≤ -4.2
G83U U104C | -0.855
C51G U53C U77C C95A | ≤ -4.2

Variant | polymerase ribozyme fitness (log ratio)
A52U U82C G92U C116G A121U | -3.06
A49U U61G C93A C108G C114A U134A C149G | ≤ -4.2
C27U U55G C85U A89U | -2.33
A12G U15G A26G C93A A115G | ≤ -4.2
C32G A41C A60U G92U G140C | ≤ -4.2
A120G U134G U148G | -3.72
G46A G94C | -1.05
A21C A30U U33G A60U C85A | ≤ -4.2
U56A C85G G86U | ≤ -4.2
C14A U61A | -3.22
U53A C96A C125U | -1.41
C87A G128A U146C U148A | ≤ -4.2
A16U C93G C105G | ≤ -4.2
G11U G70U G83C A122G G143C | ≤ -4.2
A40C A52U C57U G92C C95U C105U A106C U109C A138G | ≤ -4.2
G83U A91C | ≤ -4.2
A12G G58A U148C | -1.8
C5A C54U | 0.00554
A3U A52C C75U G92U C103G U134G | ≤ -4.2
U33A U56A C93A G94A A110C A120G U134G U145G | ≤ -4.2
C57U C85U | 0.073

Variant | polymerase ribozyme fitness (log ratio)
C18U A52C G86A C99U U146G | -4.02
A97G C99U A142G | -1.1
C14G U45G G46A C54U C72A U139G A142U | ≤ -4.2
U4G C10G A24U C35U U55G G83A C116A | ≤ -4.2
A19C U55G U90G | ≤ -4.2
U53A G84U C103G U148G | ≤ -4.2
C14U C85A G141C | -2.63
A23G A24U G58A A60G C85G U101A G128A U130C U144G | ≤ -4.2
A113G A122U G136A U148A | -3.76
C75U G83U | -3.08
G86U C149U | -2.48
G92C U127G | -3.67
C10A A20G C38A U55A A60C | ≤ -4.2
C95U C125U | -0.278
A24G A26U C38U A47U C85U C116U C125A | ≤ -4.2
U33C C93A C99G G128U | ≤ -4.2
C87A A119G A137G | ≤ -4.2
C5A C8U U9G C51U C85U A106U A107C C118A | ≤ -4.2
U13A A37C C57A G126U | -1.66
C27G C96U | -3.97
U53A C95A | -0.902

Variant | polymerase ribozyme fitness (log ratio)
U55A G88C U90C A122G G124A U148A | -4.18
G94C A138G G141A G143A | ≤ -4.2
G81C G88A A107C C125A C131U | ≤ -4.2
C5A C75U C87U | 0.223
A20U A52G | -2.02
C32G C79G C103G C105U A119U G140U | ≤ -4.2
C87U C149A | -3.78
G50C U56A G62C C72U C95U | ≤ -4.2
C85U C118G C125A | -0.0117
G42C | -3.77
G80C C87A A89C A97G U102C A137G A138G U151A | ≤ -4.2
A60G U90C C93A A150U | -0.698
A20U C27U G46C C95U | -3.76
G48A A52G | 0.139
G50A U56A C57A C114G G133A | -3.53
A16G A47G G50C G59A G83U C114A | ≤ -4.2
C14U U146G | -1.34
C5G C14A G48U U53A G74A G80C U82G C96G C118G G133U | ≤ -4.2
C8G A16U A37C A73C G84A U139C | ≤ -4.2
C27G C75A C79G G92U A121C C131G A147C | ≤ -4.2
